Data on two molecules can be found in patent publication US20050059058A1 (CASE WESTERN RESERVE UNIVERSITY, published 2005).

Experiment [1] has as its target T1, FtsZ protein (native, unlabelled) (Escherichia coli, UniProt P0A9A6 1-383).
T1 construct: also called native FtsZ; immobilized FtsZ
T1 sequence (looked up): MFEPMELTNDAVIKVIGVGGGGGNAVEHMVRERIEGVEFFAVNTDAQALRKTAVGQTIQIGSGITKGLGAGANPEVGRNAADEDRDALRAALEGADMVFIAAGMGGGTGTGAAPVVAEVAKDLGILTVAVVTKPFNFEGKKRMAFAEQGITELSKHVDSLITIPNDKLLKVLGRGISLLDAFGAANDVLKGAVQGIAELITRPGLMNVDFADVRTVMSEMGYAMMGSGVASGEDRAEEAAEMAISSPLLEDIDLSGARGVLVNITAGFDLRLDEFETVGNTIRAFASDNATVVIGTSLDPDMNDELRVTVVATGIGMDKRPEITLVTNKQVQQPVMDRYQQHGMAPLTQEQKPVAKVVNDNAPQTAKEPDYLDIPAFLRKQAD
Put plainly: assay not described.

In another experiment the target is T2, ZipA protein of E. coli (Escherichia coli, UniProt B1IX59 1-328).
T2 construct: Complete ZipA as present in the insoluble (P200) fraction of E. coli, or overproduced from the zipA ORF in a T7 system; on blots after boiling in SDS; also called 50 Kd band
Description: affinity blotting (far Western) with 32P-labelled probe. The text has this:
To address the possibility that other proteins interact with FtsZ, the present inventors searched for proteins with affinity to FtsZ. In one approach, a FtsZ derivative (HFKT-FtsZ) was made which carries at the N-terminus a histidine-tag (the his-tag is useful for purification by metal chelate affinity chromatography such as that described in U.S. Pat. No. 5,310,663, hereby incorporated by reference) as well s a substrate site for heart muscle kinase. The purified protein was radiolabeled in vitro by incubation with kinase and [γ³²P]ATP and used as a probe on Western blots.
After the addition of one volume of electrophoresis sample buffer (125 mM Tris.Cl, 4% SDS, 20% glycerol, 1.4 M (β-mercaptoethanol, pH=6.6), samples (e.g., whole cells boiled in sample buffer, or fractionated cells) were held in a boiling water bath for 5 min., and subjected to conventional SDS-PAGE on 0.75 mm thick 10% T/2.7% C gels. Electrophoretic transfer to nitrocellulose filter (0.2μ) was performed in a Genie blotter (Idea Scientific Co.) with regular Towbin buffer (25 mM Tris.Cl, 192 mM glycine, 20% methanol, pH 8.3) at 12 V for 30 min. To monitor the transfer and to visualize the molecular weight standards, filters were treated with the reversible stain Ponceau S (0.1% in 5% acetic acid) for 1 min. Filters were next destained in 10 mM Tris-Cl, rinsed in water, and allowed to dry for 15 min in air.

B1: soluble fragment of ZipA (the 39-328 peptide) (other)
chain: not shown
notes: also called portion or fragment of the ZipA protein
As to B1, the binding result in experiment [1] is listed as “binds”.

B2: HFKT-MinE fusion protein (15.9 kD, encoded by pDB311), 32P-labelled (other, Escherichia coli)
chain: MGHHHHHHHHHHSSGHIEGRHMDYKDDDDKARRASVEFHMASMTGGQQMGRGSDFFLSRKKNTANIAKERLQIIVAERRRSDAEPHYLPQLRKDILEVICKYVQIDPEMVTVQLEQKDGDISILELNVTLPEAEELK
modifications: 32P-phosphorylated in vitro by bovine heart muscle kinase at the kinase substrate site of the HFKT tag
notes: range 5-88; Negative control probe; also called HKFT-MinE; radiolabelled HKFT-MinE
For B2, the binding result with ZipA protein of E. coli is “no binding”.
